Read-outs that look alike come from different tables or passages of the source.
Columns and labels:
Assay in all cases: single-molecule TIRF microscopy of live cells
[1] = biological target: DNA-CAR (DNA-based chimeric antigen receptor; HA-tagged non-fluorescent version, pHR-DNA-CAR-IRES-puro) (UniProt P42081)
[2] = biological target: DNA-CAR (DNA-based chimeric antigen receptor; HA-tagged non-fluorescent version, pHR-DNA-CAR-IRES-puro) (UniProt P42081); remark: listed apart in the source
[3] = biological target: DNA-CAR (DNA-based chimeric antigen receptor; HA-tagged non-fluorescent version, pHR-DNA-CAR-IRES-puro) (UniProt P42081); remark: listed apart in the source

Chain of ZAP70-GFP (P43403 whole entry): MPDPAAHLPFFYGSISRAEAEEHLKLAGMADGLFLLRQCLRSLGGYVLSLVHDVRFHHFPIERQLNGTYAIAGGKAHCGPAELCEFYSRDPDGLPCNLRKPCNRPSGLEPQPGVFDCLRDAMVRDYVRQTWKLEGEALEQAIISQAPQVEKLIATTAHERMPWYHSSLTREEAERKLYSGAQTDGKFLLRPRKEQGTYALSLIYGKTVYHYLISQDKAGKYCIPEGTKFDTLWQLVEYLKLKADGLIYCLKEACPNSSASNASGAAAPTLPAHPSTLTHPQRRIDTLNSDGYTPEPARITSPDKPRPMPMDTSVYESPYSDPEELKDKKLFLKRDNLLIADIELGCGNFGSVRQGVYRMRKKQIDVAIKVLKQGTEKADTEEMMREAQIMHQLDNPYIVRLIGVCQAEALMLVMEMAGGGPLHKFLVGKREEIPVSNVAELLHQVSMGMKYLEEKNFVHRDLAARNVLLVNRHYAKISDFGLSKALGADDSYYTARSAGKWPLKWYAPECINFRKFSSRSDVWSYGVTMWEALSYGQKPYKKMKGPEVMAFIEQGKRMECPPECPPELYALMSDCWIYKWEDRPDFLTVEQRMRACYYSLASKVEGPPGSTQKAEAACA

percent of single bound ligand-receptors that recruit ZAP70-GFP [1]: 2.2%
percent of receptor-ligand clusters of 3 or more ligands that recruit ZAP70-GFP [2]: 53%
percent of single bound ligands that recruit ZAP70-GFP [2]: 2%
duration of ZAP70-GFP recruitment at a single ligated receptor [3]: < 20 s
half-life of the bound time on a single ligated receptor [3]: 10 s
percent of receptor-ligand clusters of 3 or more ligands that recruit ZAP70-GFP [3]: 83%
percent of single bound ligand-receptors that recruit ZAP70-GFP [3]: 6.3%
percent of single bound receptors that recruit ZAP70-GFP [3]: 20%
Substance: ZAP70-GFP (from UniProt P43403 1-619) (enzyme)

Source: paper doi:10.1101/062877
